This is an account of results in PMC3414502.

Some results are limits rather than exact numbers.

In the test the target is CPM-PH-PLCß2 (N-terminal PH domain of PLCβ2). Put plainly: other fluorescence titration; unlabelled γ-synuclein added in steps to CPM-labelled protein in solution (2 nM CPM-PLCβ2, also 0.5 nM); increase of CPM intensity; 20 mM Hepes pH 7.2, 160 mM NaCl, 1 mM DTT.
Chain of CPM-PH-PLCß2 (N-terminal PH domain of PLCβ2) (Q00722 whole entry, the tested form may be a part): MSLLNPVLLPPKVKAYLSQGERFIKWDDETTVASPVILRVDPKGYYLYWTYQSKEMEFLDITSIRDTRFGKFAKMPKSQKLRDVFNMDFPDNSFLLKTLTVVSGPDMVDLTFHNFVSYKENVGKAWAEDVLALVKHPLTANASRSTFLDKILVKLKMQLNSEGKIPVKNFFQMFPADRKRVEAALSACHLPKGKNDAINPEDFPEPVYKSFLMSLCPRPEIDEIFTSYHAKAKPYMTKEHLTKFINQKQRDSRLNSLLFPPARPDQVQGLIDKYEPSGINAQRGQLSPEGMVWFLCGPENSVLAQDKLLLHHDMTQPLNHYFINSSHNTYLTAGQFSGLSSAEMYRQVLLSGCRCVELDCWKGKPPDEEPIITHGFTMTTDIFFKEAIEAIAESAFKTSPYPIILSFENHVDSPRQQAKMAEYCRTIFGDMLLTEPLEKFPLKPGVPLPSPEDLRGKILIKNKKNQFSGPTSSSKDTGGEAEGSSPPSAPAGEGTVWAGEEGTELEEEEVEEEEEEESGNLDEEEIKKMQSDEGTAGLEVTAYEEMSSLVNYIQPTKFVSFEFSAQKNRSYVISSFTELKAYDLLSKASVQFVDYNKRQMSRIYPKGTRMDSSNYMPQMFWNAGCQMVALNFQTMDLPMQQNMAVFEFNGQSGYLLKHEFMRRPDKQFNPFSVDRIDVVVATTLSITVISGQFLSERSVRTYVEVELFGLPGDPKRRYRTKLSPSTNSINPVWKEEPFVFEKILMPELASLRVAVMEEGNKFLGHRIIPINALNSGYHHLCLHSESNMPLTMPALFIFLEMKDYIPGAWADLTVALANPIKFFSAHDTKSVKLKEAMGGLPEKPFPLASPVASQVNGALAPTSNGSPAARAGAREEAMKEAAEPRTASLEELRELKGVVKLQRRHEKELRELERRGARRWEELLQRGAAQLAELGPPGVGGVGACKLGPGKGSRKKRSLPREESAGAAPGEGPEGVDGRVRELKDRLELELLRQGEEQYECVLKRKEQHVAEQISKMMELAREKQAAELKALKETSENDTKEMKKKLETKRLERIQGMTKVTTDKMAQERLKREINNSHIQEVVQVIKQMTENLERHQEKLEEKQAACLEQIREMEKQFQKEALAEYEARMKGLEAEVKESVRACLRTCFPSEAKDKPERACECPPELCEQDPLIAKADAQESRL

Chain of Human γ-synuclein (O76070 whole entry): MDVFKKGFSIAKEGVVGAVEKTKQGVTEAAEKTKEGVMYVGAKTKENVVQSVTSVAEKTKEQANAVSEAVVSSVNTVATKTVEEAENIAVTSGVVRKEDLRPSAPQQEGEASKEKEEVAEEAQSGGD

For “Human γ-synuclein (from UniProt O76070 1-127) (natural protein)”, the fold weaker affinity than for full length CPM-PLCβ2 was over 50 fold.
